# Measured values: PMC7689490, “Designed CXCR4 mimic acts as a soluble chemokine receptor that blocks atherogenic inflammation by agonist-specific targeting” (Nature Communications, 2020)
# Several values for one entry are separate records, joined by “and”; a condition that tells them apart may be missing. Identical values can stand only once.
# B1: macrophage migration-inhibitory factor (MIF), recombinant human, unlabelled, P14174 1-115 (natural protein)
# chain: MPMFIVNTNVPRASVPDGFLSELTQQLAQATGKPPQYIAVHVVPDQLMAFGGSSEPCALCSLHSIGKIGGAQNRSYSKLLCGLLAERLRISPDRVYINYYDMNAANVGWNNSTFA
# modifications: here or on the partner: disulfide bridge from Cys-109 to Cys-186 of the ECL2 chain; C-terminal amide; Fluos (fluorescein) label, chain and position not stated | disulfide bridge from Cys-186 to Cys-109 of the ECL1 chain; C-terminal amide
# B2: macrophage migration-inhibitory factor (MIF), recombinant human, P14174 1-115 (natural protein)
# chain: MPMFIVNTNVPRASVPDGFLSELTQQLAQATGKPPQYIAVHVVPDQLMAFGGSSEPCALCSLHSIGKIGGAQNRSYSKLLCGLLAERLRISPDRVYINYYDMNAANVGWNNSTFA
# modifications: here or on the partner: disulfide bridge from Cys-109 to Cys-186 of the ECL2 chain; C-terminal amide; Fluos label on the molecule (chain and position not stated) | disulfide bridge from Cys-186 to Cys-109 of the ECL1 chain; C-terminal amide
# Key:
# [1] = target: Fluos-msR4M-LS (fluorescein-labelled ECL1[97–110] and ECL2[182–196] joined only by a disulfide bridge, no synthetic linker) (human), P61073; experiment: other fluorescence titration; Fluos-labelled CXCR4 ectodomain peptide at 5 nM titrated with unlabelled MIF, MIF(10xAla), CXCL12 or MIF peptide fragments; 10 mM sodium phosphate, pH 7.4, 1% HFIP; emission at 522 nm; apparent KD, 1/1 binding model; conditions: remark: other sources report otherwise
# [2] = target: Fluos-msR4M-LS (human), P61073; experiment: other fluorescence titration; 5 nM Fluos-labeled ectodomain peptide titrated with unlabeled MIF, MIF peptide or CXCL12; 10 mM sodium phosphate, pH 7.4, 1% HFIP; emission at 522 nm; apparent KD, 1/1 binding model; one constant for each of three curves; conditions: remark: other sources report otherwise
Binder,Kd [1],Kd [2]
B1,6.9 nM,
B2,,9 nM and 5 nM
